Measurements taken from patent US12297265B2, “Antibody and use thereof” (SICHUAN KELUN-BIOTECH BIOPHARMACEUTICAL CO., LTD., priority 2018, dated 2025).

Target: human Claudin18.2 (Homo sapiens, UniProt P56856)
Test: Cellular ELISA on L929-Claudin 18.2 cells
Type: binding
Design: expressed in transfected cells; host or cells: L929, infected with pLVX-IRES-puro lentivirus, puromycin-selected monoclonal line; cells were formaldehyde-fixed for the cellular ELISA
Details: Table 10 experiment
Procedure: Human Claudin18.2 is a four transmembrane protein and has a complex structure. Cellular ELISA was thus carried out to maintain the structure of Claudin18.2. The stable cell line L929-Claudin 18.2 constructed in Example 1 were used for detection. Specifically, L929-Claudin 18.2 adherent cells were detached by 2 mM EDTA treatment. The cells were resuspended and adjusted to 2×10^5/mL and 100 μL of the resuspension was plated into 96 well plate and incubated overnight at 37° C. The next day, the media was removed, and the plate was washed with PBS once. 100 μL/well 4% formaldehyde was added to the plate. After 30 min of incubation at room temperature, formaldehyde was removed, followed by washing twice with PBS. Blocking buffer (PBS containing 2% BSA) was then added to the plate at 100 μL/well, and incubated at 37° C. for 2 h. After removal of blocking buffer, 100 μL/well of serially diluted antibodies (starting from 1 μM, with 4-fold dilution, for a total of 11 concentrations) were added to the corresponding wells, which were incubated at 37° C. for 2h afterwards. The plate was washed with 250 μL PBST for 5 times, and was allowed to stand for 2 min each time. 100 μL/well of horseradish peroxidase labeled anti-Human IgG secondary antibody (HRP-anti-Human IgG, Jackson ImmunoResearch, 109-035-003) diluted 1:10000 in PBS (containing 2% BSA) was added to the plate. The plate was incubated at 37° C. for 1 h and washed with 250 μL PB ST 6 times, wherein the plate was allowed to stand for 2 min each time. 100 μL/well of TMB solution (Thermo, 34029) was added. The reactions were incubated at 37° C. for 20 min and stopped with 50 μL 2 mol/L H2504. The absorbance at 450 nm was read on a plate reader (MD, SpectraMax M2) and the results were subjected to curve fitting by Graphpad Prism.

B1: 2C6.9-hz11: humanized antibody of 2C6.9; VH SEQ ID NO: 39, VL SEQ ID NO: 41 (antibody, V domains shown)
VH: QVQLQESGPGLVKPSETLSLTCTVSGFSLTRYGVSWIRQPPGKGLEWIGVIWGDGNTNYNPSLKSRVTISKDSSKSQVSLKLSSVTAADTAVYYCARVNFGNALDYWGQGTLVTVSS
VL: DIVMTQSPDSLAVSLGERATINCKSSQSLLNSGNQKNYLTWYQQKPGQPPKLLIYWASTRDSGVPDRFSGSGSGTDFTLTISSLQAEDVAVYYCQNDFIFPLTFGGGTKVEIK
modifications: Heavy chain variable region of humanized antibody 2C6.9hz11; light chain variable region of humanized antibody 2C6.9hz11/2C6.9hz21
- Max Signal Value (OD450): 0.8 OD450
